Molecular target: T1, Tkip (tyrosine kinase inhibitor peptide), WLVFFVIFYFFR
T1 chain: WLVFFVIFYFFR

B1: Recombinant human JAK2 immobilized on agarose beads (protein)
chain: MGMACLTMTEMEGTSTSSIYQNGDISGNANSMKQIDPVLQVYLYHSLGKSEADYLTFPSGEYVAEEICIAASKACGITPVYHNMFALMSETERIWYPPNHVFHIDESTRHNVLYRIRFYFPRWYCSGSNRAYRHGISRGAEAPLLDDFVMSYLFAQWRHDFVHGWIKVPVTHETQEECLGMAVLDMMRIAKENDQTPLAIYNSISYKTFLPKCIRAKIQDYHILTRKRIRYRFRRFIQQFSQCKATARNLKLKYLINLETLQSAFYTEKFEVKEPGSGPSGEEIFATIIITGNGGIQWSRGKHKESETLTEQDLQLYCDFPNIIDVSIKQANQEGSNESRVVTIHKQDGKNLEIELSSLREALSFVSLIDGYYRLTADAHHYLCKEVAPPAVLENIQSNCHGPISMDFAISKLKKAGNQTGLYVLRCSPKDFNKYFLTFAVERENVIEYKHCLITKNENEEYNLSGTKKNFSSLKDLLNCYQMETVRSDNIIFQFTKCCPPKPKDKSNLLVFRTNGVSDVPTSPTLQRPTHMNQMVFHKIRNEDLIFNESLGQGTFTKIFKGVRREVGDYGQLHETEVLLKVLDKAHRNYSESFFEAASMMSKLSHKHLVLNYGVCVCGDENILVQEFVKFGSLDTYLKKNKNCINILWKLEVAKQLAWAMHFLEENTLIHGNVCAKNILLIREEDRKTGNPPFIKLSDPGISITVLPKDILQERIPWVPPECIENPKNLNLATDKWSFGTTLWEICSGGDKPLSALDSQRKLQFYEDRHQLPAPKWAELANLINNCMDYEPDFRPSFRAIIRDLNSLFTPDYELLTENDMLPNMRIGALGFSGAFEDRDPTQFEERHLKFLQQLGKGNFGSVEMCRYDPLQDNTGEVVAVKKLQHSTEEHLRDFEREIEILKSLQHDNIVKYKGVCYSAGRRNLKLIMEYLPYGSLRDYLQKHKERIDHIKLLQYTSQICKGMEYLGTKRYIHRDLATRNILVENENRVKIGDFGLTKVLPQDKEYYKVKEPGESPIFWYAPESLTESKFSVASDVWSFGVVLYELFTYIEKSKSPPAEFMRMIGNDKQGQMIVFHLIELLKNNGRLPRPDGCPDEIYMIMTECWNNNVNQRPSFRDLALRVDQIRDNMAG
JAK2 autophosphorylation and JAK2 phosphorylation of IFNGR-1, in vitro kinase assay (32P autoradiography): Tkip at 50 µM inhibited both the autophosphorylation of JAK2 as well as JAK2 phosphorylation of IFNGR-1

— patent US20040265963
